Laboratory results published in the RNAGym collection of RNA variant scans (doi:10.1101/gr.219683.116).

B1: mRNA-splicing (parent)
chain: AGUUGCUGCUGGGAGCUCCAGCACAGUGAAAUGGACAGAAGGGCAGAGCAA

Variants of: B1
Assay: exon inclusion enrichment index; higher = more inclusion; WT1 exon 5 minigene, HEK293

Q: For G5C C6A U7C G8A U10A G34U A35C, which “exon inclusion enrichment index” value is on record?
A: The value was 0.0109.

Q: For G5C C6A U7C G8A U10A G34U A35U, which “exon inclusion enrichment index” value is on record?
A: Its value is 0.00489.

Q: With G5C C6A U7C G8A U10A G38U A39U as the variant, how does the “exon inclusion enrichment index” value read?
A: The value was 0.00131.

Q: With G5C C6A U7C G8A U10A G38U A39G as the variant, how does the “exon inclusion enrichment index” value read?
A: The value was 0.0343.

Q: For G5C C6A U7C G8A U10A G38U A39C, which “exon inclusion enrichment index” value is on record?
A: The value was 0.0552.

Q: For G5C C6A U7C G8A U10A U27A G28A, which “exon inclusion enrichment index” value is on record?
A: The value was 0.112.

Q: For G5C C6A U7C G8A U10A U27A G28C, which “exon inclusion enrichment index” value is on record?
A: The value was 0.152.

Q: Which “exon inclusion enrichment index” value does the source give for G5C C6A U7C G8A U10A U27A G28U here?
A: Its value is 0.0378.

Q: Which “exon inclusion enrichment index” value does the source give for G5C C6A U7C G8A U10A G41C here?
A: Its value is 0.467.

Q: Which “exon inclusion enrichment index” value does the source give for G5C C6A U7C G8A U10A G41A here?
A: Its value is 0.0572.

Q: With G5C C6A U7C G8A U10A G41U as the variant, how does the “exon inclusion enrichment index” value read?
A: Its value is 0.102.

Q: Which “exon inclusion enrichment index” value does the source give for G5C C6A U7C G8C C9U U10A here?
A: The value was 0.107.

Q: With G5C C6A U7C G8C C9U U10C as the variant, how does the “exon inclusion enrichment index” value read?
A: The value was 1.98.

Q: For G5C C6A U7C G8A U10A G26U U27G, which “exon inclusion enrichment index” value is on record?
A: Its value is 0.355.

Q: For G5C C6A U7C G8A U10A G26U U27C, which “exon inclusion enrichment index” value is on record?
A: Its value is 0.613.

Q: For G5C C6A U7C G8A U10A G26U U27A, which “exon inclusion enrichment index” value is on record?
A: Its value is 0.0285.

Q: For G5C C6A U7C G8A U10A G34A A35C, which “exon inclusion enrichment index” value is on record?
A: Its value is 0.0814.

Q: Which “exon inclusion enrichment index” value does the source give for G5C C6A U7C G8A U10A G34A A35G here?
A: Its value is 0.0257.

Q: With G5C C6A U7C G8A U10A G34A A35U as the variant, how does the “exon inclusion enrichment index” value read?
A: Its value is 0.0204.

Q: For G5C C6A U7G G8A U10A, which “exon inclusion enrichment index” value is on record?
A: The value was 0.0223.

Q: For G5C C6A U7C G8A U10A G46U A47U, which “exon inclusion enrichment index” value is on record?
A: Its value is 0.206.

Q: Which “exon inclusion enrichment index” value does the source give for G5C C6A U7C G8A U10A G46U A47C here?
A: Its value is 0.501.

Q: For G5C C6A U7C G8A U10A G46U A47G, which “exon inclusion enrichment index” value is on record?
A: The value was 0.118.

Q: For G5C C6A U7C G8A U10A G41C G42U, which “exon inclusion enrichment index” value is on record?
A: The value was 0.481.

Q: For G5C C6A U7C G8A U10A G41C G42C, which “exon inclusion enrichment index” value is on record?
A: Its value is 0.654.

Q: Which “exon inclusion enrichment index” value does the source give for G5C C6A U7C G8A U10A G41C G42A here?
A: The value was 0.141.

Q: With G5C C6A U7C G8A U10A G28C A29G as the variant, how does the “exon inclusion enrichment index” value read?
A: The value was 0.241.

Q: Which “exon inclusion enrichment index” value does the source give for G5C C6A U7C G8A U10A G28C A29C here?
A: Its value is 0.0814.

Q: For G5C C6A U7C G8A U10A G28C A29U, which “exon inclusion enrichment index” value is on record?
A: Its value is 0.0485.

Q: With G5C C6A U7C G8A U10A G28A A29G as the variant, how does the “exon inclusion enrichment index” value read?
A: Its value is 0.0244.

Q: Which “exon inclusion enrichment index” value does the source give for G5C C6A U7C G8A U10A G28A A29C here?
A: Its value is 0.0469.

Q: With G5C C6A U7C G8A U10A G28A A29U as the variant, how does the “exon inclusion enrichment index” value read?
A: The value was 0.0236.

Q: For G5C C6A U7C G8A U10A U17G, which “exon inclusion enrichment index” value is on record?
A: Its value is 0.0684.

Q: With G5C C6A U7C G8A U10A U17C as the variant, how does the “exon inclusion enrichment index” value read?
A: Its value is 0.0444.

Q: For G5C C6A U7C G8A U10A U17A, which “exon inclusion enrichment index” value is on record?
A: The value was 0.106.

Q: Which “exon inclusion enrichment index” value does the source give for G5C C6A U7C G8A U10G here?
A: Its value is 0.737.

Q: Which “exon inclusion enrichment index” value does the source give for G5C C6A U7C G8A U10C here?
A: The value was 1.71.

Q: Which “exon inclusion enrichment index” value does the source give for G5C C6A U7C G8A U10A G42A G43C here?
A: The value was 1.53.

Q: With G5C C6A U7C G8A U10A G42A G43A as the variant, how does the “exon inclusion enrichment index” value read?
A: The value was 1.43.

Q: For G5C C6A U7C G8A U10A G42A G43U, which “exon inclusion enrichment index” value is on record?
A: Its value is 1.25.

Q: Which “exon inclusion enrichment index” value does the source give for G5C C6A U7C G8A U10C G11C here?
A: Its value is 1.58.

Q: For G5C C6A U7C G8A U10C G11A, which “exon inclusion enrichment index” value is on record?
A: Its value is 1.06.

Q: For G5C C6A U7C G8A U10C G11U, which “exon inclusion enrichment index” value is on record?
A: Its value is 1.71.

Q: Which “exon inclusion enrichment index” value does the source give for G5C C6A U7C G8A U10A G42U G43C here?
A: The value was 0.0644.

Q: Which “exon inclusion enrichment index” value does the source give for G5C C6A U7C G8A U10A G42U G43U here?
A: The value was 0.305.

Q: With G5C C6A U7C G8A U10A G42U G43A as the variant, how does the “exon inclusion enrichment index” value read?
A: The value was 0.386.

Q: For G5C C6A U7C G8A U10A G41U G42C, which “exon inclusion enrichment index” value is on record?
A: Its value is 0.369.

Q: For G5C C6A U7C G8A U10A G41U G42U, which “exon inclusion enrichment index” value is on record?
A: Its value is 0.0854.

Q: For G5C C6A U7C G8A U10A G41U G42A, which “exon inclusion enrichment index” value is on record?
A: Its value is 0.0336.

Q: Which “exon inclusion enrichment index” value does the source give for G5C C6A U7C G8A U10A U32C here?
A: Its value is 0.292.

Q: For G5C C6A U7C G8A U10A U32G, which “exon inclusion enrichment index” value is on record?
A: The value was 0.00606.

Q: Which “exon inclusion enrichment index” value does the source give for G5C C6A U7C G8A U10A U32A here?
A: The value was 0.0862.

Q: With G5C C6A U7C G8A U10A G26U as the variant, how does the “exon inclusion enrichment index” value read?
A: Its value is 0.091.

Q: For G5C C6A U7C G8A U10A G33A G34C, which “exon inclusion enrichment index” value is on record?
A: Its value is 0.0321.

Q: Which “exon inclusion enrichment index” value does the source give for G5C C6A U7C G8A U10A G33A G34U here?
A: Its value is 0.00646.

Q: With G5C C6A U7C G8A U10A G33A G34A as the variant, how does the “exon inclusion enrichment index” value read?
A: Its value is 0.00429.

Q: For G5C C6A U7C G8A U10A U17C C18G, which “exon inclusion enrichment index” value is on record?
A: The value was 0.166.

Q: For G5C C6A U7C G8A U10A U17C C18U, which “exon inclusion enrichment index” value is on record?
A: The value was 0.0619.

Q: For G5C C6A U7C G8A U10A U17C C18A, which “exon inclusion enrichment index” value is on record?
A: Its value is 0.063.

Q: With G5C C6A U7C G8A U10A G33C as the variant, how does the “exon inclusion enrichment index” value read?
A: The value was 0.162.

Q: For G5C C6A U7C G8A U10A G33U, which “exon inclusion enrichment index” value is on record?
A: The value was 0.0519.

Q: Which “exon inclusion enrichment index” value does the source give for G5C C6A U7C G8A U10A G33A here?
A: The value was 0.00667.

Q: With G5C C6A U7C G8A U10A G28U A29G as the variant, how does the “exon inclusion enrichment index” value read?
A: Its value is 0.0731.

Q: For G5C C6A U7C G8A U10A G28U A29C, which “exon inclusion enrichment index” value is on record?
A: Its value is 0.0517.

Q: With G5C C6A U7C G8A U10A G28U A29U as the variant, how does the “exon inclusion enrichment index” value read?
A: Its value is 0.00263.

Q: For G5C C6A U7C G8U U10A, which “exon inclusion enrichment index” value is on record?
A: The value was 0.146.

Q: With G5C C6A U7C G8A U10A G33C G34A as the variant, how does the “exon inclusion enrichment index” value read?
A: The value was 0.0324.

Q: Which “exon inclusion enrichment index” value does the source give for G5C C6A U7C G8A U10A G33C G34U here?
A: Its value is 0.0659.

Q: With G5C C6A U7C G8A U10A G33C G34C as the variant, how does the “exon inclusion enrichment index” value read?
A: The value was 0.0275.

Q: Which “exon inclusion enrichment index” value does the source give for G5C C6A U7C G8A U10A U27G G28C here?
A: Its value is 0.0314.

Q: With G5C C6A U7C G8A U10A U27G G28U as the variant, how does the “exon inclusion enrichment index” value read?
A: Its value is 0.00217.

Q: For G5C C6A U7C G8A U10A U27G G28A, which “exon inclusion enrichment index” value is on record?
A: The value was 0.122.

Q: Which “exon inclusion enrichment index” value does the source give for G5C C6A U7C G8A U10A G38A A39G here?
A: The value was 0.102.

Q: Which “exon inclusion enrichment index” value does the source give for G5C C6A U7C G8A U10A G38A A39U here?
A: Its value is 0.0079.

Q: Which “exon inclusion enrichment index” value does the source give for G5C C6A U7C G8A U10A G38A A39C here?
A: The value was 0.107.

Q: For G5C C6A U7G G8C C9U U10C, which “exon inclusion enrichment index” value is on record?
A: Its value is 1.36.

Q: With G5C C6A U7C U10A as the variant, how does the “exon inclusion enrichment index” value read?
A: Its value is 0.259.

Q: With G5C C6A U7C U10C as the variant, how does the “exon inclusion enrichment index” value read?
A: Its value is 3.16.

Q: For G5C C6A U7C G8A U10A G43C C44A, which “exon inclusion enrichment index” value is on record?
A: The value was 0.602.

Q: With G5C C6A U7C G8A U10A G43C C44G as the variant, how does the “exon inclusion enrichment index” value read?
A: Its value is 1.22.

Q: For G5C C6A U7C G8A U10A G43C C44U, which “exon inclusion enrichment index” value is on record?
A: The value was 0.0879.

Q: With G5C C6A U7C G8A U10A G28A as the variant, how does the “exon inclusion enrichment index” value read?
A: Its value is 0.0118.

Q: Which “exon inclusion enrichment index” value does the source give for G5C C6A U7C G8A U10A G28C here?
A: Its value is 0.0496.

Q: With G5C C6A U7C G8A U10A G28U as the variant, how does the “exon inclusion enrichment index” value read?
A: The value was 0.00934.
